Measurements taken from article PMC10917784 (Nature Communications, 2024).

Key:
Conditions in all cases: one partner purified
CD38 on tumor cell lines [1] = molecular target: T1, CD38 on tumor cell lines (Homo sapiens, UniProt P28907); test: flow cytometry on cells; Raji cells, increasing antibody concentrations, 4 °C, 30 min, labelled anti-human IgG secondary; Kd from fit of RFI
T1 construct: CD38 on the surface of CD38high (Daudi, Raji) and CD38low (NCI-H929, KMS-12-BM) cell lines; source: endogenous, on Daudi, Raji, NCI-H929 and KMS-12-BM cells

CD38 on tumor cell lines [2] = molecular target: T1, CD38 on tumor cell lines; test: flow cytometry on cells; Daudi cells, increasing antibody concentrations, 4 °C, 30 min, labelled anti-human IgG secondary; Kd from fit of RFI
CD38 on tumor cell lines [3] = molecular target: T1, CD38 on tumor cell lines; test: flow cytometry on cells; KMS-12-BM cells, increasing antibody concentrations, 4 °C, 30 min, labelled anti-human IgG secondary; Kd from fit of RFI
CD38 on tumor cell lines [4] = molecular target: T1, CD38 on tumor cell lines; test: flow cytometry on cells; NCI-H929 cells, increasing antibody concentrations, 4 °C, 30 min, labelled anti-human IgG secondary; Kd from fit of RFI

Kd (CD38 on tumor cell lines [1]): 0.33 nM | Kd (CD38 on tumor cell lines [2]): 0.258 nM | Kd (CD38 on tumor cell lines [3]): 0.138 nM | Kd (CD38 on tumor cell lines [4]): 0.506 nM
B1: daratumumab (antibody, V domains shown)
VH: EVQLLESGGGLVQPGGSLRLSCAVSGFTFNSFAMSWVRQAPGKGLEWVSAISGSGGGTYYADSVKGRFTISRDNSKNTLYLQMNSLRAEDTAVYFCAKDKILWFGEPVFDYWGQGTLVTVSS
VL: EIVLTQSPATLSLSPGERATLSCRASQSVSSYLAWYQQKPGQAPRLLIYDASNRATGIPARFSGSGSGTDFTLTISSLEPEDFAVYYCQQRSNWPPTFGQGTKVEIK
notes: whole antibody in the assay; the PDB entry holds only part of it; also called Darzalex; source: bought: Janssen Biotech Inc
